The target in series [1] is wild-type 6xHis-tagged p16 expressed in HEK293 cells (human) (UniProt P42771). Put plainly: cross-linking; HEK293 cells transiently expressing p16-His variants, 200 µM H2O2 in media for the times indicated, stopped with 10 µg/mL catalase and 50 mM NEM; non-reducing SDS-PAGE and western blot for p16. A general note: Immunoblotting shows a protein as a band on a membrane.
For series [2], the target named is endogenous p16 of Ishikawa cells (human (endogenous in Ishikawa cells)) (UniProt P42771). Put plainly: cross-linking; lysates of cancer cell lines without added oxidant, SDS lysis buffer, non-reducing SDS-PAGE and western blot for p16.
Series [3] concerns the molecule itself. Nature of the series: cross-linking; intermolecular disulfide formed by oxidant (20 µM p16, 200 µM diamide, or H2O2 with or without 25 mM bicarbonate), 4 mM HEPES pH 7.4, room temperature; free cysteines blocked with 10 mM NEM; non-reducing SDS-PAGE.
Series [4] concerns the molecule itself. Put plainly: Thioflavin-T fluorescence (amyloid formation); 20 µM p16 (series 5-60 µM), 10 µM ThT, oxidant (200 µM diamide, or H2O2 with or without bicarbonate) added at the start, 4 mM HEPES pH 7.4, 25 °C, quiescent.

For orientation: stoichiometry N means a count of units in the complex or per binding partner. “wild-type 6xHis-tagged p16 expressed in HEK293 cells (from UniProt P42771 1-156) (natural protein)” displayed a stoichiometry N in series [1] of 2. Regarding “endogenous p16 of Ishikawa cells (from UniProt P42771 1-156) (natural protein)”, the stoichiometry N in series [2] is 2.

B1: p16^INK4a, wild type (recombinant) (natural protein, human)
chain: GAMEPAAGSSMEPSADWLATAAARGRVEEVRALLEAGALPNAPNSYGRRPIQVMMMGSARVAELLLLHGAEPNCADPATLTRPVHDAAREGFLDTLVVLHRAGARLDVRDAWGRLPVDLAEELGHRDVARYLRAAAGGTRGSNHARIDAAEGPSDIPD
notes: p16INK4a, UniProt P42771; Self-association needs oxidation of Cys72 (diamide or H2O2): intermolecular disulfide dimer, then oligomers and amyloid fibrils; Constructs obtained from Genscript; also called wild-type p16; monomeric p16; source: E. coli BL21(DE3), purified (Ni-NTA, SEC, TEV cleavage, second Ni-NTA, desalting); not shown: His6, N-terminal, cleaved; protein A tag, N-terminal, cleaved
For B1, the “stoichiometry N” value in series [3] stood at 2.

B2: p16^INK4a V95A (recombinant) (natural protein, human)
chain: GAMEPAAGSSMEPSADWLATAAARGRVEEVRALLEAGALPNAPNSYGRRPIQVMMMGSARVAELLLLHGAEPNCADPATLTRPVHDAAREGFLDTLAVLHRAGARLDVRDAWGRLPVDLAEELGHRDVARYLRAAAGGTRGSNHARIDAAEGPSDIPD
notes: p16INK4a, UniProt P42771; previously reported cancer mutation; source: E. coli BL21(DE3), purified (Ni-NTA, SEC, TEV cleavage, second Ni-NTA, desalting); not shown: His6, N-terminal, cleaved; protein A tag, N-terminal, cleaved
B2: in series [4], the binding result is reported as “binds”.

B3: p16^INK4a D84N (recombinant) (natural protein, human)
chain: GAMEPAAGSSMEPSADWLATAAARGRVEEVRALLEAGALPNAPNSYGRRPIQVMMMGSARVAELLLLHGAEPNCADPATLTRPVHNAAREGFLDTLVVLHRAGARLDVRDAWGRLPVDLAEELGHRDVARYLRAAAGGTRGSNHARIDAAEGPSDIPD
notes: as for B2
As for B3, the binding result in series [4] is recorded as “binds”.

B4: p16^INK4a A127S (recombinant) (natural protein, human)
chain: GAMEPAAGSSMEPSADWLATAAARGRVEEVRALLEAGALPNAPNSYGRRPIQVMMMGSARVAELLLLHGAEPNCADPATLTRPVHDAAREGFLDTLVVLHRAGARLDVRDAWGRLPVDLAEELGHRDVSRYLRAAAGGTRGSNHARIDAAEGPSDIPD
notes: as for B2
In the case of B4, the binding result in series [4] is given as “binds”.

B5: p16^INK4a A20S (recombinant) (natural protein, human)
chain: GAMEPAAGSSMEPSADWLATASARGRVEEVRALLEAGALPNAPNSYGRRPIQVMMMGSARVAELLLLHGAEPNCADPATLTRPVHDAAREGFLDTLVVLHRAGARLDVRDAWGRLPVDLAEELGHRDVARYLRAAAGGTRGSNHARIDAAEGPSDIPD
notes: as for B2
On to B5, for which the binding result in series [4] was “binds”.

B6: p16^INK4a G122S (recombinant) (natural protein, human)
chain: GAMEPAAGSSMEPSADWLATAAARGRVEEVRALLEAGALPNAPNSYGRRPIQVMMMGSARVAELLLLHGAEPNCADPATLTRPVHDAAREGFLDTLVVLHRAGARLDVRDAWGRLPVDLAEELSHRDVARYLRAAAGGTRGSNHARIDAAEGPSDIPD
notes: as for B2
On to B6, for which, in series [4], the binding result is given as “binds”.

B7: p16^INK4a L37S (recombinant, stabilizing mutation) (natural protein, human)
chain: GAMEPAAGSSMEPSADWLATAAARGRVEEVRALLEAGASPNAPNSYGRRPIQVMMMGSARVAELLLLHGAEPNCADPATLTRPVHDAAREGFLDTLVVLHRAGARLDVRDAWGRLPVDLAEELGHRDVARYLRAAAGGTRGSNHARIDAAEGPSDIPD
notes: p16INK4a, UniProt P42771; source: E. coli BL21(DE3), purified (Ni-NTA, SEC, TEV cleavage, second Ni-NTA, desalting); not shown: His6, N-terminal, cleaved; protein A tag, N-terminal, cleaved
Regarding B7, the binding result in series [4] is “binds”.
